Assay results as given in the supplement of paper PMC9112550, “Optimization of the antimicrobial peptide Bac7 by deep mutational scanning” (BMC Biology, 2022).

Tested on: Escherichia coli TOP10
Assay: shrunken log2 fold change of peptide-encoding DNA abundance (4.5 h post-induction vs induction); higher = less antimicrobial activity (less host growth inhibition)
Conditions: time post-induction: 4.5 h; library: site-saturation at positions 5, 18, 19, 20
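Further: peptides expressed intracellularly from a pBAD plasmid library in pooled LB shake-flask culture, induced with 0.3% L-arabinose, DNA abundance read by NGS, three biological replicates, DESeq2 with apeglm shrinkage.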

Sequence | shrunken log2 fold change
RRIRRRPPRLPRPRPRPTIMPRP | 0.0494
RRIRFRPPRLPRPRPRPQMIPRP | -0.484
RRIRHRPPRLPRPRPRPNCYPRP | -0.0056
RRIRSRPPRLPRPRPRPAFLPRP | -0.0125
RRIRCRPPRLPRPRPRPNDAPRP | -0.12
RRIRWRPPRLPRPRPRPCNTPRP | -0.169
RRIRWRPPRLPRPRPRPTKVPRP | -0.0596
RRIRMRPPRLPRPRPRPENIPRP | 0.0472
RRIRSRPPRLPRPRPRPSPKPRP | 0.0583
RRIRDRPPRLPRPRPRPVKAPRP | 0.026
RRIRWRPPRLPRPRPRPNNPPRP | -0.631
RRIRVRPPRLPRPRPRPSNDPRP | -0.244
RRIRVRPPRLPRPRPRPKQAPRP | 0.243
RRIRQRPPRLPRPRPRPADHPRP | -0.0888
RRIRPRPPRLPRPRPRPPEDPRP | 0.695
RRIRGRPPRLPRPRPRPVQMPRP | 0.844
RRIRRRPPRLPRPRPRPTQGPRP | 0.935
RRIRYRPPRLPRPRPRPPSFPRP | 0.0588
RRIRSRPPRLPRPRPRPMSGPRP | 0.131
RRIRKRPPRLPRPRPRPQCLPRP | 0.131
RRIRIRPPRLPRPRPRPWWKPRP | -0.102
RRIRARPPRLPRPRPRPKITPRP | -0.0367
RRIRHRPPRLPRPRPRPYLVPRP | -0.162
RRIRIRPPRLPRPRPRPAQIPRP | 0.0984
RRIRYRPPRLPRPRPRPLSEPRP | -0.215

Sequence | shrunken log2 fold change
RRIRARPPRLPRPRPRPCMVPRP | -0.0554
RRIRARPPRLPRPRPRPTTYPRP | -0.0877
RRIRYRPPRLPRPRPRPAGDPRP | -0.232
RRIRARPPRLPRPRPRPQPFPRP | -0.0268
RRIRHRPPRLPRPRPRPFTRPRP | -0.132
RRIRMRPPRLPRPRPRPKWRPRP | 0.797
RRIRQRPPRLPRPRPRPTLFPRP | 0.12
RRIRTRPPRLPRPRPRPFHQPRP | -0.126
RRIRERPPRLPRPRPRPLFLPRP | -0.306
RRIRCRPPRLPRPRPRPACNPRP | -0.0286
RRIRARPPRLPRPRPRPHIHPRP | -0.45
RRIRMRPPRLPRPRPRPIFGPRP | 0.0873
RRIRMRPPRLPRPRPRPRTVPRP | 0.472
RRIRFRPPRLPRPRPRPMTWPRP | 0.478
RRIRLRPPRLPRPRPRPQVGPRP | -0.203
RRIRLRPPRLPRPRPRPVKYPRP | -0.446
RRIRYRPPRLPRPRPRPMIQPRP | -0.0921
RRIRPRPPRLPRPRPRPLSYPRP | 0.0626
RRIRCRPPRLPRPRPRPPTQPRP | 0.515
RRIRKRPPRLPRPRPRPITTPRP | -0.174
RRIRERPPRLPRPRPRPNQDPRP | 0.169
RRIRWRPPRLPRPRPRPNARPRP | 0.0903
RRIRARPPRLPRPRPRPPGVPRP | 0.158
RRIRTRPPRLPRPRPRPVWNPRP | -0.117
RRIRKRPPRLPRPRPRPWRCPRP | -0.0463

Sequence | shrunken log2 fold change
RRIRHRPPRLPRPRPRPMTQPRP | -0.24
RRIRLRPPRLPRPRPRPSEGPRP | -0.501
RRIRTRPPRLPRPRPRPHIKPRP | -0.616
RRIRPRPPRLPRPRPRPYLDPRP | -0.908
RRIRLRPPRLPRPRPRPAVCPRP | 0.0348
RRIRWRPPRLPRPRPRPNKWPRP | -0.0175
RRIRERPPRLPRPRPRPTMSPRP | -0.217
RRIRVRPPRLPRPRPRPVLRPRP | 0.187
RRIRWRPPRLPRPRPRPKCHPRP | 0.206
RRIRYRPPRLPRPRPRPCAKPRP | -0.374
RRIRWRPPRLPRPRPRPRDIPRP | -0.244
RRIRHRPPRLPRPRPRPTTQPRP | -0.0335
RRIRGRPPRLPRPRPRPLSGPRP | 0.675
RRIRNRPPRLPRPRPRPYSWPRP | -0.814
RRIRPRPPRLPRPRPRPILDPRP | -0.0669
RRIRVRPPRLPRPRPRPRQIPRP | 0.0436
RRIRARPPRLPRPRPRPFRWPRP | -0.0369
RRIRCRPPRLPRPRPRPTQHPRP | 0.349
RRIRWRPPRLPRPRPRPTFQPRP | 0.131
RRIRRRPPRLPRPRPRPMCVPRP | -0.0364
RRIRWRPPRLPRPRPRPFPLPRP | -0.297
RRIRHRPPRLPRPRPRPLLAPRP | 0.299
RRIRHRPPRLPRPRPRPDSTPRP | 0.12
RRIRYRPPRLPRPRPRPNTIPRP | -1.05
RRIRHRPPRLPRPRPRPKWCPRP | -0.142

Sequence | shrunken log2 fold change
RRIRERPPRLPRPRPRPPEWPRP | -0.0429
RRIRIRPPRLPRPRPRPMMTPRP | -0.115
RRIRVRPPRLPRPRPRPCFPPRP | 0.228
RRIRERPPRLPRPRPRPKQWPRP | 0.0081
RRIRDRPPRLPRPRPRPYGNPRP | -0.117
RRIRYRPPRLPRPRPRPFLIPRP | -1.15
RRIRVRPPRLPRPRPRPVQNPRP | -0.029
RRIRERPPRLPRPRPRPKKFPRP | -0.524
RRIRCRPPRLPRPRPRPYLSPRP | -0.577
RRIRHRPPRLPRPRPRPAVSPRP | -0.378
RRIRHRPPRLPRPRPRPMHFPRP | -0.0161
RRIRWRPPRLPRPRPRPIDSPRP | -0.0713
RRIRIRPPRLPRPRPRPGGVPRP | 0.0574
RRIRARPPRLPRPRPRPNMHPRP | 0.0638
RRIRNRPPRLPRPRPRPNNTPRP | -0.798
RRIRMRPPRLPRPRPRPWHRPRP | -0.0718
RRIRRRPPRLPRPRPRPIWIPRP | -0.32
RRIRHRPPRLPRPRPRPMCEPRP | -0.293
RRIRFRPPRLPRPRPRPLIFPRP | -0.666
RRIRWRPPRLPRPRPRPRSRPRP | 0.385
RRIRGRPPRLPRPRPRPMCMPRP | 0.509
RRIRRRPPRLPRPRPRPFPCPRP | 0.038
RRIRERPPRLPRPRPRPISAPRP | -0.214
RRIRPRPPRLPRPRPRPFCIPRP | -0.463
RRIRNRPPRLPRPRPRPAYTPRP | -0.262

Sequence | shrunken log2 fold change
RRIRTRPPRLPRPRPRPIYGPRP | -0.0121
RRIRWRPPRLPRPRPRPRNMPRP | -0.0758
RRIRGRPPRLPRPRPRPEDPPRP | 1.38
RRIRNRPPRLPRPRPRPWRWPRP | 0.0867
RRIRWRPPRLPRPRPRPHSEPRP | -0.162
RRIRFRPPRLPRPRPRPVSGPRP | -0.0636
RRIRARPPRLPRPRPRPVWSPRP | 0.197
RRIRHRPPRLPRPRPRPNTAPRP | -0.246
RRIRKRPPRLPRPRPRPGYSPRP | -0.447
RRIRFRPPRLPRPRPRPDTKPRP | -0.123
RRIRCRPPRLPRPRPRPDIEPRP | -0.0833
RRIRIRPPRLPRPRPRPSVNPRP | -0.225
RRIRNRPPRLPRPRPRPIFAPRP | 0.111
RRIRIRPPRLPRPRPRPNCPPRP | -0.231
RRIRSRPPRLPRPRPRPYVAPRP | -0.402
RRIRRRPPRLPRPRPRPEYLPRP | -0.0446
RRIRIRPPRLPRPRPRPPHAPRP | 0.162
RRIRARPPRLPRPRPRPYFSPRP | -0.624
RRIRPRPPRLPRPRPRPGKMPRP | 0.0379
RRIRVRPPRLPRPRPRPMCTPRP | -0.0103
RRIRPRPPRLPRPRPRPTIQPRP | -0.101
RRIRKRPPRLPRPRPRPIPFPRP | 0.347
RRIRTRPPRLPRPRPRPNPYPRP | -0.121
RRIRHRPPRLPRPRPRPECGPRP | 0.322
RRIRQRPPRLPRPRPRPLSNPRP | -0.109
